This passage reports protease stability score results from the NTF2 design screens of Basanta et al. (2020).

This data set in a line: protease stability score; higher = more stable; yeast display proteolysis, trypsin and chymotrypsin.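 Also: log10 excess protease needed over predicted unfolded state with 0 meaning unfolded.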
“DEEWLHRFLQQYRSGDEDQMVRNMDKDVKIDVGDKEIHGREEAERWYRELKKRIDHFEVDHIKIQGESATADVRMNVNGRDVKFTLHVEAHNGRVKYVRLQATSSEVKTRMDRALG” had a protease stability score of 0.198.
The sequence “DEENRRNFERLIEAIRTNNPSDVEQLVDPNVRFQVGNEVYNGREQFSKDVERLNRQINITIHVRRLHVHGEKVVVDFTYQQEVNGRPNSHRVKWDATLENGKIKSARNTFDEEFEKELTK” returned a protease stability score of -0.091.
The result for “DESEEKELEDILRRNDWERMSELAPPDVHATVGDTRLHGMEQVLSLFQTLNKRADQIHVKTLSVHNGQLHAVIVMQFNGRRVELHFDFEVKNGEFTSARVQARTEEEEKVMKEVLR” reads 1.05.
As to “DSHEKAEKWARKLNQVWEHNDPDRAMEMVDPNVRVDIGDRRYHGREDWRKMVEHLNKRVDHMEFKFDQVDAHNGKIRITVTFTYTIDGQERTERLVFHVDNVNGRLVAQKAHDG”, the protease stability score worked out at 0.343.
In turn, “DEDQEDLIRRLIKALDTGDPEQARKNADKDARFNYGDQEIHGMQTFVDDLEKRKRQMHVRITRIDVRVHNGQAKQSVNEVTNHNGRPQSRVQDRRIQITNGRVKKMENDDDG” returned a protease stability score of -0.316.
The result for “DEHTSAHNFIEHEWKVFSTNDKKSMKELIDKNVKIDVGDKQVNGREEAARQEVETAKRVDHVDVKLQHLSVHNGRIKAQFRRVLRVDGQDNDEVLRFVIQLNNGNAQAKDKHET” reads 0.115.
The result for “DNDHWRKIATDMIKALQEGDRQKVKKLVDKDAKARIGDRDVHGREHIVTLLYEMQQRIDHMQLVDVKVRGEEVVVRYHAKFNGKVVDVSITLHFRNGKVKEMRVDPRAVESLKK” reads 1.22.
Consider “DPKKDLKVAEEVLKAMYSGDDEKAQKLVDPSVKAQTGDQKYHGTDDIKKMVKTFKDYGVEHEEKETKVDGGYAEVVIQAKIGNDEVEAKWRVYAKDGRVDYVQADITEKLTKLMQHG”, for which the protease stability score is -0.445.
Take “DQDLHTRFKTWVENLHEGDEDNLKSLADPNAKIKVGNKEYHGMDEFKKDQKRRRDQMRIQIEIDSVTVQGNKATAEFEMTLDVNGKPVRMRFRVQFEVHNGTIQSWEAQVSPEQQEKLDR”: the protease stability score came to 0.967.
To “DEEDHQKIAHSLAEVLKTGDPDRMMELADENVKFQVGDKTYHGREELKKYMEQLHRHADHIEIDHISVQGDKIRIHARMNVNGREHTFVIQVEIHNGRAKSITFQYG” belongs 1.53; to “DEEVEHQFRTYERALRQGDEQELRDQVDKNAEIEYGDRKIHGMDRAARKIARRVRELRVEDNFVSLEVKENHVQKNVDVVIEVNGRPVRFRADMQVQVHNGKVKEIRVQVPEEVQKRVKE”, 0.127; to “EESVIKRIHQLMESNDWDQLVRQMDEDAKVEIGNFRVEGREEAEDWARKVKKQVDHLEVEDIQIRGNKVEVTMNVQVNGKTVRFDLVMEVRNGRVTSMSARFRSEDDVKIMEEMLK”, 1.15.
For “DETEQAKKLLNDIENIFRTGDPKQLEKLAPPDVDVRVGDKEVHGKEQVVEELQRRQESFDHIEFNLHRVSVSGDKYRLDYEVRFDHNGRTETYRVVVVYVNNNGRLQDKSMTIK”, the protease stability score was found to be 0.684.
As to “DEELLELVRRWITAVRTNDPKQLEKNFDPNAKFEYGDKSVRGKEQVVREQEKQVQEIRFSYRISDFRVDNGRVEMEVKVHEKHNGRPDTKTVKWKAEMSNGRLVWMRMQKRQ”, the protease stability score amounted to 0.412.
Take “DESQQKHLTRLLEDNDFDRLAELADKHVRVEYGDQSYQGRETFQEMQEKLKKRADHLTYRSIDNQGDKIKVDFVLNVNGKDVRLQFDFRFNNGHIKEMTITATSEENLHKFEEALS”: the protease stability score is -0.094.
Take “DESAAERFDEFMRNVDTNNEHKLKEYADPNAKVQYGDKVLHGMDQIIHDIRRYMEEMRVRVDFKRYDAQGNELSFVADYSAEYNGEPVNDNVTFHVEAHNGKLKDMKINFDPKKDQDRRG”: the protease stability score stood at 0.355.
The sequence “DEEDLKTMFDVMETGDPNQIADQFDKDARVVVGNRRVRGKEHIHTWAHEWRKNVDHQQVDSYEIKGDNARVDMQATINGTRFVFEIIIQVHNGKAKEMELRVRDEEEKKELDEVLE” showed a protease stability score of -0.026.
The result for “DQDAIRRLDEALRAEETGNEKQLKDLFDPNVEFVIGDDEYHGMDSYAKDVRRRKQNMRDHIEHVDMHDNGSQIHIRYRQVANINGTPVKYEITATAEVHNGRFKRMEYRIDEDEQRKLDS” reads 0.026; that for “EESLEHIVRTMLEQIRRGDPRDLKEMFPENARIEYGDRSIHGREEYAKTMEHKRRQARYHFQVKSIRNNGNKVELVMEVEDNHNGNPSTRRVKLTIVFHNGRIQNVEQTNKP”, 1.03.
“DEDKQRKTADEIQKVIKQGDEKKAEDLFDENAKLSIGDKFYRGKEDFKRWFRSLRDRIDHFQVKDLEVDGERAEFVVVFHVNGKNVEMVIEIHVHNGKVKHARVNPEDERKLNT”: the protease stability score was 1.05.
“DDKDQHEEVEKFARNVVSGNSDELRKQMDKDVRANVGDKTLRGREEVADFWKHMRDRIDHAEIKEIRFHNGEARIVMQFVHNGRTKQINIVMEFHDGHVKRLRVEDG” returned a protease stability score of 2.73.
To “DEEAVNIHKTILEAEQSGDPDKFRQNVDPNVRYRYGDKEIHGREQAAERVKEKRDQARFQFDSIHIKVHGDKARAHFDFVVDHNGNPHRMSFTVVFNAHGDKLEFEIIKFDPRMKKELDS” belongs 0.198.
To “DQEVREYIKRVYSTGDPDELNKLIDKDVRMRVGDKEVEGRETVQTIMRDWMTRVDDIKVHSYDVRGNKANYDAQYVFDGRSARFVIHIEFHNGRVKHVVVEATNEEVKQLLRDMLS” belongs 1.33.
With “DEQTAAKKANELAEAISTGDPERVMELADKDVKVVVGDKTYHGKEDLREMAKRFRDRVDHAQIDSVTNDGEHAKIHMRVEVNGHTVEIDLVIEARNGHAKHLQVDPDDQRKLEG”, the protease stability score came out at 0.919.
“DETAQDLVTTLIEAWKTNDPDSVANLMDPNATVKIGDKSVHGKKQLEEMLKKLRDEMTIDIKRVDVKVNNGDAKVNARATFTHNGKPDSRTMSAEVEWNGDKVKEFRVHWEQ”: the protease stability score was 1.
The result for “DEEDERTVKERMKKNNFDELAKNADENARATYGDKTYHGREQVRKAAKDFKDAVDRVKIDSISVHNGTVRMEFTVVINGRHFEMVLYVHVHNGKVQHMEFQATDDKIRKDLKRLQE” reads -0.275; that for “DRDEVHHLHELYKAIEDGDDKKAQDLMDENAKARIGDKHFRGMQHFVETLKKEKDHMRVKIDNMRFTERPNRVVVNIEVKRSNNGEPESEVYRAFADAHNGKFVNLVIEHNQ”, -0.056; that for “DEERAQHLVDQIFRAFKRGDPEQFKKMFDPNARMHVGDQRYHGREDIIKFLQEIREQADTITLRKVTVHNGQADIIVDVQVDGRRVRIQILINYHNGKVKSLKIHYTDEELQKEIES”, 1.56.
To “DEQKDDKRSKDIKKQVEKGNEHEILKLFDKDAKVRVGDKVVQGRESIKDEIHHLRRRVDNIEVKEVHAQGDKVTVDVQVDVNGVQIRQVLHIQMNNGKVTDAKVEFTNEEQLRQMHG” belongs 0.099.
In turn, “DEEEVTKVVKKLRENDRDSQRDLFDKDVRVKIGDKNVHGREQAVTFWDRFLNSVDRYHVDSVEIDGDQIKIDARAVVNGRKVRYVVVYTVRNGRIKEASVHFTNEDEEKEFEKNVG” came in with a protease stability score of 1.28.
“EEEKVKKVVKKLFEAVQKGDKKKLQELLHEDVEFQFGVKRVKGAEQYMRTVDELRQRGVQIEVKKYQVKDDKARMVTVVRYGDKTVTMTAEAEYEGGVLKRARVELTDEAKELVKKG” showed a protease stability score of 0.41.
To “DDDSQNEFLQRVAEAIVTGDEKSLVRMMDPNARANVGDKQFHGREQMARWARELRERVDHLQVDDLQNHNGRLHMDIQFKDNGKNKHFIIQVEAHNGKVTKMSADEK” belongs 1.36.
The result for “DDRDLEQLLRELVTIWKNGNFEDLSRQADPNVKFRVGDKTYHGREQASKLWKKLSDQADHWSVDSVQAKGDTLRLDFRATVNGHEVRMVYHARIQNGSITSWEIQYTSEELHTRVER” reads 1.09.
For “DEETAEQVMRELNRLLKNGNPDEMMTMMDKDARIEVGDKTYHGRDDIRRQNKEDRRRVDRFEVTSVDVRGDKADIDARFQFNGKTKRYQLFAKFHNGRVKHLEIEDK”, the protease stability score was 0.034.
On to “NEEQAKRLAEKWIRAVENGNVDELRKLGKPDMEVVAVNEKAKGVDTVHKYMKKFTDRGVELKVDRAKNTGGRVRYTVRARYGGQELTAEVVIDIKDGKVDKVEFRVDERQAQYVLRG”, for which the protease stability score is 0.812.
The result for “DEEVKHSVDKYLQAVRQGDPDKLREMADENVTVDIGDTTYHGMSEYARRVVERQKKIRIHYDLKSLTVSGNHVKIDQEVVKHHNGKPERNRVTVIMHLNNGRIQSMSVKVDG” reads 0.277; that for “DDEKKARTLLKQLKEAFENNDEDRARQLMDKDVRLDIGDKTYHGREEAAEAWHRLVETVDHMDMKVRHIENRNGHMVVNADMVLHRDGRQKRLKVTFTARDDNGHAVLVHVSFD”, 1.45.
With “DEEFAKTVVQMFRNWVHGDPSDMTRMLDENAHVVIGDTTLRGRDDVSRYVNELHDHMRFHVDRLSEENRPGRAVVKAQNNNVHNGEPTTNRAVVEVNVKNGKAQDIQYNSDK”, the protease stability score was -0.36.
To “DERARNVLKRIMHALRENNEEEFKKNADPNVRIHVGDKQYHGREDAARKIMTTLKSMKERIDVKSVDVEGDQIELHADVQVEENGQPDTKEIRVHADIQGDKMRSMKVDDTK” belongs -0.308; to “DDEREREFEHFLRVVEEGNPEELKKLLDPNVRIEYGDKVIHGREEYAKRVHETVKELRFSMSIHDVKVNGDTVEVDATSSWTHNGQPNKDQNVLVIRFHNGKFKEIRHDKDR”, 0.607; to “EQTFVHEFIKNVQRNNEHELKKLIDPNAKVVVGNKTFQGREQINSQLKRFKDQVDEFHVDTYHDKGDKAVIDYVRVVDGQRVHYRLIITAENGKVKSMELHVTDPEQQKTIERVLD”, 1.33.
“DDEDKAREFQRHLLRLVRTNNEKDLHNMADPNVKVVIGDKVYSGRDDVAKAHAELRRNVDHINLEIKSVSHKNGRMKVEAEVIYDHNGKKDKRTMTAVIDRHNGKNVLVHMNIQ” showed a protease stability score of 1.65.
To “DDDEMRKLLTRLADNYKHNDPNKLAEQMDPDVEIEIGDKTYHGRENVMKHWKEQHERVDHVNIQHLDAQGENLVMTFNVTVNGKHVTVRIIFNVKNGRIKSVIVDPDDIKKLEG” belongs 1.48; to “DEEHWRKIAEDFMHALRTGDPRTLRKLMDEDVQYVYGDQRVTGHEEAANRFHELRQKVDHVTVKHIEVQGNKVVIDVVMQVNGKEARMTIVIVFENGRAKVLTFDPEQIKKLEG”, 1.23.
To “DTELKDQIKRFLSERNSGNPQKMVEQMDPNANMSVGDKSVRGREQVSEQAEREKRELHYRVRSVDISVNGDKVKVKINVEREHNGRPFTMTLDLTIRAHNGRLTRVEVSLSEDDKREIKR” belongs 0.521; to “DEEMEKRWEEWLDAVTTGDESRVREYMDPNVRYNYGDKHYTGREEIAHDTVREVKRIRIEIKTMSNDDQGEHVRVRFNRVKNDNGEPKEEVLVVEFTQENGRITEATQHEDR”, -0.004; to “DEDKNNRDMQDMIRAVITNDEKRVQELMDPNASVTVGDHTFKGTEAVTHLITDLRNHIDHVELNSVSVHNGKAKADMVFTVNGQHVKIEMNAQAHNGKVTQFDVSARSEEEHKKYKQ”, -0.542.
